# Reference: paper PMC5661634
# Assays:
# [1] = target: mouse SNX5 PX domain (residues 20–180) (mouse) (UniProt Q9D8U8); experiment: SPR; Biacore T100; PX5 immobilised on a CM5 chip, GST-IncE 109-132 WT or mutants flowed over; 25 °C; 20 mM Na HEPES pH 7.5, 200 mM NaCl, 0.005% Triton-X100; 1:1 steady state analysis
# [2] = target: mouse SNX5 PX domain (residues 20–180) (mouse) (UniProt Q9D8U8); experiment: SPR; Biacore T100; PX5 immobilised on a CM5 chip, IncE 109-132 peptide flowed over (33 nM-2.7 uM); 25 °C; 20 mM Na HEPES pH 7.5, 200 mM NaCl, 0.005% Triton-X100; 1:1 fitting model
# UniProt Q9D8U8, sequence (Q9D8U8 20-180): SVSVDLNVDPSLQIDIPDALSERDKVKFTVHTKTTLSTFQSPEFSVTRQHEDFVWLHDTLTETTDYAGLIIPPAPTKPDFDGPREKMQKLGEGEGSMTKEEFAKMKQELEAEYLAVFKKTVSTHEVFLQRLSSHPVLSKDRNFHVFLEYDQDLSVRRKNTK
Substance,Kd [1],Kd [2]
GST-IncE^109–132 V127A (domain or fragment),980 nM,–
GST-IncE^109–132 K118A (domain or fragment),790 nM,–
IncE^109–132 peptide,–,540 nM
GST-IncE^109–132 WT (domain or fragment),390 nM,–
